What was measured:
[1] = substrate: CC1=C(C(=O)O)N2C(=O)[C@@H](NC(=O)[C@H](N)c3ccc(O)cc3)[C@H]2SC1; experiment: Activity of recombinant human ABCC1 expressed in baculovirus infected insect Sf21 cell plasma membrane vesicles assessed as transporter-mediated drug uptake by liquid scintillation counting analysis in presence of ATP; format: ADME
[2] = substrate: CC1=C(C(=O)O)N2C(=O)[C@@H](NC(=O)[C@H](N)c3ccc(O)cc3)[C@H]2SC1; experiment: Activity of recombinant human ABCC3 expressed in baculovirus infected insect Sf21 cell plasma membrane vesicles assessed as transporter-mediated drug uptake by liquid scintillation counting analysis in presence of ATP; format: ADME
[3] = substrate: CC1=C(C(=O)O)N2C(=O)[C@@H](NC(=O)[C@H](N)c3ccc(O)cc3)[C@H]2SC1; experiment: Activity of recombinant human ABCC4 expressed in baculovirus infected insect Sf21 cell plasma membrane vesicles assessed as transporter-mediated drug uptake by liquid scintillation counting analysis in presence of ATP; format: ADME
[4] = substrate: Cc1nnc(SCC2=C(C(=O)O)N3C(=O)[C@@H](NC(=O)Cn4cnnn4)[C@H]3SC2)s1; experiment: (§1) Activity of recombinant human MRP4 expressed in adenovirus infected HEK293 cell plasma membrane vesicles assessed as transporter-mediated drug uptake after 2 mins by Michaelis-Menten plot analysis in presence of ATP; format: ADME, cell-based
[5] = substrate: CO/N=C(\C(=O)N[C@@H]1C(=O)N2C(C(=O)O)=CCS[C@H]12)c1csc(N)n1; experiment: as §1; format: ADME, cell-based

B1: Multidrug resistance-associated protein 1 (Homo sapiens) (protein)
chain: MALRGFCSADGSDPLWDWNVTWNTSNPDFTKCFQNTVLVWVPCFYLWACFPFYFLYLSRHDRGYIQMTPLNKTKTALGFLLWIVCWADLFYSFWERSRGIFLAPVFLVSPTLLGITMLLATFLIQLERRKGVQSSGIMLTFWLVALVCALAILRSKIMTALKEDAQVDLFRDITFYVYFSLLLIQLVLSCFSDRSPLFSETIHDPNPCPESSASFLSRITFWWITGLIVRGYRQPLEGSDLWSLNKEDTSEQVVPVLVKNWKKECAKTRKQPVKVVYSSKDPAQPKESSKVDANEEVEALIVKSPQKEWNPSLFKVLYKTFGPYFLMSFFFKAIHDLMMFSGPQILKLLIKFVNDTKAPDWQGYFYTVLLFVTACLQTLVLHQYFHICFVSGMRIKTAVIGAVYRKALVITNSARKSSTVGEIVNLMSVDAQRFMDLATYINMIWSAPLQVILALYLLWLNLGPSVLAGVAVMVLMVPVNAVMAMKTKTYQVAHMKSKDNRIKLMNEILNGIKVLKLYAWELAFKDKVLAIRQEELKVLKKSAYLSAVGTFTWVCTPFLVALCTFAVYVTIDENNILDAQTAFVSLALFNILRFPLNILPMVISSIVQASVSLKRLRIFLSHEELEPDSIERRPVKDGGGTNSITVRNATFTWARSDPPTLNGITFSIPEGALVAVVGQVGCGKSSLLSALLAEMDKVEGHVAIKGSVAYVPQQAWIQNDSLRENILFGCQLEEPYYRSVIQACALLPDLEILPSGDRTEIGEKGVNLSGGQKQRVSLARAVYSNADIYLFDDPLSAVDAHVGKHIFENVIGPKGMLKNKTRILVTHSMSYLPQVDVIIVMSGGKISEMGSYQELLARDGAFAEFLRTYASTEQEQDAEENGVTGVSGPGKEAKQMENGMLVTDSAGKQLQRQLSSSSSYSGDISRHHNSTAELQKAEAKKEETWKLMEADKAQTGQVKLSVYWDYMKAIGLFISFLSIFLFMCNHVSALASNYWLSLWTDDPIVNGTQEHTKVRLSVYGALGISQGIAVFGYSMAVSIGGILASRCLHVDLLHSILRSPMSFFERTPSGNLVNRFSKELDTVDSMIPEVIKMFMGSLFNVIGACIVILLATPIAAIIIPPLGLIYFFVQRFYVASSRQLKRLESVSRSPVYSHFNETLLGVSVIRAFEEQERFIHQSDLKVDENQKAYYPSIVANRWLAVRLECVGNCIVLFAALFAVISRHSLSAGLVGLSVSYSLQVTTYLNWLVRMSSEMETNIVAVERLKEYSETEKEAPWQIQETAPPSSWPQVGRVEFRNYCLRYREDLDFVLRHINVTINGGEKVGIVGRTGAGKSSLTLGLFRINESAEGEIIIDGINIAKIGLHDLRFKITIIPQDPVLFSGSLRMNLDPFSQYSDEEVWTSLELAHLKDFVSALPDKLDHECAEGGENLSVGQRQLVCLARALLRKTKILVLDEATAAVDLETDDLIQSTIRTQFEDCTVLTIAHRLNTIMDYTRVIVLDKGEIQEYGAPSDLLQQRGLFYSMAKDAGLV
- Km [1]: 3900 µM
- Vmax [1]: 0.0124 µmol/min

B2: ATP-binding cassette sub-family C member 3 (Homo sapiens) (protein)
chain: MDALCGSGELGSKFWDSNLSVHTENPDLTPCFQNSLLAWVPCIYLWVALPCYLLYLRHHCRGYIILSHLSKLKMVLGVLLWCVSWADLFYSFHGLVHGRAPAPVFFVTPLVVGVTMLLATLLIQYERLQGVQSSGVLIIFWFLCVVCAIVPFRSKILLAKAEGEISDPFRFTTFYIHFALVLSALILACFREKPPFFSAKNVDPNPYPETSAGFLSRLFFWWFTKMAIYGYRHPLEEKDLWSLKEEDRSQMVVQQLLEAWRKQEKQTARHKASAAPGKNASGEDEVLLGARPRPRKPSFLKALLATFGSSFLISACFKLIQDLLSFINPQLLSILIRFISNPMAPSWWGFLVAGLMFLCSMMQSLILQHYYHYIFVTGVKFRTGIMGVIYRKALVITNSVKRASTVGEIVNLMSVDAQRFMDLAPFLNLLWSAPLQIILAIYFLWQNLGPSVLAGVAFMVLLIPLNGAVAVKMRAFQVKQMKLKDSRIKLMSEILNGIKVLKLYAWEPSFLKQVEGIRQGELQLLRTAAYLHTTTTFTWMCSPFLVTLITLWVYVYVDPNNVLDAEKAFVSVSLFNILRLPLNMLPQLISNLTQASVSLKRIQQFLSQEELDPQSVERKTISPGYAITIHSGTFTWAQDLPPTLHSLDIQVPKGALVAVVGPVGCGKSSLVSALLGEMEKLEGKVHMKGSVAYVPQQAWIQNCTLQENVLFGKALNPKRYQQTLEACALLADLEMLPGGDQTEIGEKGINLSGGQRQRVSLARAVYSDADIFLLDDPLSAVDSHVAKHIFDHVIGPEGVLAGKTRVLVTHGISFLPQTDFIIVLADGQVSEMGPYPALLQRNGSFANFLCNYAPDEDQGHLEDSWTALEGAEDKEALLIEDTLSNHTDLTDNDPVTYVVQKQFMRQLSALSSDGEGQGRPVPRRHLGPSEKVQVTEAKADGALTQEEKAAIGTVELSVFWDYAKAVGLCTTLAICLLYVGQSAAAIGANVWLSAWTNDAMADSRQNNTSLRLGVYAALGILQGFLVMLAAMAMAAGGIQAARVLHQALLHNKIRSPQSFFDTTPSGRILNCFSKDIYVVDEVLAPVILMLLNSFFNAISTLVVIMASTPLFTVVILPLAVLYTLVQRFYAATSRQLKRLESVSRSPIYSHFSETVTGASVIRAYNRSRDFEIISDTKVDANQRSCYPYIISNRWLSIGVEFVGNCVVLFAALFAVIGRSSLNPGLVGLSVSYSLQVTFALNWMIRMMSDLESNIVAVERVKEYSKTETEAPWVVEGSRPPEGWPPRGEVEFRNYSVRYRPGLDLVLRDLSLHVHGGEKVGIVGRTGAGKSSMTLCLFRILEAAKGEIRIDGLNVADIGLHDLRSQLTIIPQDPILFSGTLRMNLDPFGSYSEEDIWWALELSHLHTFVSSQPAGLDFQCSEGGENLSVGQRQLVCLARALLRKSRILVLDEATAAIDLETDNLIQATIRTQFDTCTVLTIAHRLNTIMDYTRVLVLDKGVVAEFDSPANLIAARGIFYGMARDAGLA
- Km [2]: 2500 µM
- Vmax [2]: 0.0006 µmol/min

B3: ATP-binding cassette sub-family C member 4 (Homo sapiens) (protein)
chain: MLPVYQEVKPNPLQDANLCSRVFFWWLNPLFKIGHKRRLEEDDMYSVLPEDRSQHLGEELQGFWDKEVLRAENDAQKPSLTRAIIKCYWKSYLVLGIFTLIEESAKVIQPIFLGKIINYFENYDPMDSVALNTAYAYATVLTFCTLILAILHHLYFYHVQCAGMRLRVAMCHMIYRKALRLSNMAMGKTTTGQIVNLLSNDVNKFDQVTVFLHFLWAGPLQAIAVTALLWMEIGISCLAGMAVLIILLPLQSCFGKLFSSLRSKTATFTDARIRTMNEVITGIRIIKMYAWEKSFSNLITNLRKKEISKILRSSCLRGMNLASFFSASKIIVFVTFTTYVLLGSVITASRVFVAVTLYGAVRLTVTLFFPSAIERVSEAIVSIRRIQTFLLLDEISQRNRQLPSDGKKMVHVQDFTAFWDKASETPTLQGLSFTVRPGELLAVVGPVGAGKSSLLSAVLGELAPSHGLVSVHGRIAYVSQQPWVFSGTLRSNILFGKKYEKERYEKVIKACALKKDLQLLEDGDLTVIGDRGTTLSGGQKARVNLARAVYQDADIYLLDDPLSAVDAEVSRHLFELCICQILHEKITILVTHQLQYLKAASQILILKDGKMVQKGTYTEFLKSGIDFGSLLKKDNEESEQPPVPGTPTLRNRTFSESSVWSQQSSRPSLKDGALESQDTENVPVTLSEENRSEGKVGFQAYKNYFRAGAHWIVFIFLILLNTAAQVAYVLQDWWLSYWANKQSMLNVTVNGGGNVTEKLDLNWYLGIYSGLTVATVLFGIARSLLVFYVLVNSSQTLHNKMFESILKAPVLFFDRNPIGRILNRFSKDIGHLDDLLPLTFLDFIQTLLQVVGVVSVAVAVIPWIAIPLVPLGIIFIFLRRYFLETSRDVKRLESTTRSPVFSHLSSSLQGLWTIRAYKAEERCQELFDAHQDLHSEAWFLFLTTSRWFAVRLDAICAMFVIIVAFGSLILAKTLDAGQVGLALSYALTLMGMFQWCVRQSAEVENMMISVERVIEYTDLEKEAPWEYQKRPPPAWPHEGVIIFDNVNFMYSPGGPLVLKHLTALIKSQEKVGIVGRTGAGKSSLISALFRLSEPEGKIWIDKILTTEIGLHDLRKKMSIIPQEPVLFTGTMRKNLDPFNEHTDEELWNALQEVQLKETIEDLPGKMDTELAESGSNFSVGQRQLVCLARAILRKNQILIIDEATANVDPRTDELIQKKIREKFAHCTVLTIAHRLNTIIDSDKIMVLDSGRLKEYDEPYVLLQNKESLFYKMVQQLGKAEAAALTETAKQVYFKRNYPHIGHTDHMVTNTSNGQPSTLTIFETAL
- Km [3]: 250 µM
- Vmax [3]: 0.0012 µmol/min
- Km [4]: 81 µM
- Km [5]: 18 µM

Source: ChEMBL document CHEMBL3526024, “Oral availability of cefadroxil depends on ABCC3 and ABCC4” (Drug Metab Dispos, 2012)
